Reference: PMC5204125, “Primase is required for helicase activity and helicase alters the specificity of primase in the enteropathogen Clostridium difficile” (Open Biology, 2016)

Legend:
[1] = molecular target: CD3657 helicase, bacterial two-hybrid fusion (Clostridium difficile); experiment: two-hybrid; bacterial two-hybrid: Zif fusion and RNA polymerase ω subunit fusion, Zif-dependent lacZ reporter in E. coli KDZif1ΔZ, β-galactosidase activity, n = 3
[2] = molecular target: CD3654 putative helicase loader, bacterial two-hybrid fusion (Clostridium difficile); experiment: as above
[3] = molecular target: C. difficile replicative helicase CD3657, purified non-tagged (Clostridium difficile)
[4] = molecular target: C. difficile replicative helicase CD3657, purified non-tagged (Clostridium difficile); remark: listed apart in the source
[5] = molecular target: C. difficile replicative helicase CD3657, purified non-tagged (Clostridium difficile); experiment: SEC; analytical gel filtration, Superdex 200 10/300 GL, CD3657 and CD3654 equimolar 2.21 µM (monomer), without ATP; fractions on SDS-PAGE
[6] = molecular target: C. difficile replicative helicase CD3657, purified non-tagged (Clostridium difficile); experiment: SEC; analytical gel filtration, Superdex 200 10/300 GL, CD3657 and CD3654 equimolar 2.21 µM (monomer), with 1 mM ATP; fractions on SDS-PAGE
[7] = molecular target: C. difficile putative helicase loader CD3654, purified non-tagged (Clostridium difficile); experiment: as above
[8] = molecular target: C. difficile replicative helicase CD3657, purified non-tagged (Clostridium difficile); experiment: SEC; analytical gel filtration of purified CD3657 alone, at 10 µM and above (monomer)
[9] = molecular target: C. difficile replicative helicase CD3657, purified non-tagged (Clostridium difficile); experiment: SEC; analytical gel filtration of CD3657 and CD3654 at high concentrations (approx. 10 µM); Figure S3
[10] = molecular target: T1, CD3657 helicase with CD3654 helicase loader (Clostridioides difficile, UniProt Q181Q5+Q181Q8); experiment: analytical gel filtration (Superdex […]) with SDS-PAGE; conditions: 1 mM ATP; 2.21 uM each protein (monomer); ATP site inferred by the authors to be on CD3657 (Walker A), ATP binding itself not measured
T1 construct: gene dnaC; full-length open reading frames, non-tagged, expressed in E. coli BL21(DE3) from pET vectors; CD3657 monomer 49 kDa, CD3654 38 kDa; most probably 6:6 dodecamer with ATP (522 kDa); with Helicase loader ATPase (DnaI-like AAA+ protein)
T1 sequence (Q181Q8 1-442): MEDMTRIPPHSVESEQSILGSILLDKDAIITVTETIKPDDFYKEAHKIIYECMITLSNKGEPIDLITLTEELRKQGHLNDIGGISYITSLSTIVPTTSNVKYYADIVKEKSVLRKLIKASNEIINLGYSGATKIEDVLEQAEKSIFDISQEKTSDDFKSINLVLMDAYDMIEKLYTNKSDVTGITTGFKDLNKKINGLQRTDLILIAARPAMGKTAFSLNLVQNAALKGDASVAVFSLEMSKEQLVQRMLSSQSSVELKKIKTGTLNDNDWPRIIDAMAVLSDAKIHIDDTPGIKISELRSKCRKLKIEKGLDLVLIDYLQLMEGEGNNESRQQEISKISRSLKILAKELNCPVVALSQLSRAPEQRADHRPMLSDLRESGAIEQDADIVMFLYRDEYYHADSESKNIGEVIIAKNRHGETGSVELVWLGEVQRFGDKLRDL
T1 sequence (Q181Q5 1-330): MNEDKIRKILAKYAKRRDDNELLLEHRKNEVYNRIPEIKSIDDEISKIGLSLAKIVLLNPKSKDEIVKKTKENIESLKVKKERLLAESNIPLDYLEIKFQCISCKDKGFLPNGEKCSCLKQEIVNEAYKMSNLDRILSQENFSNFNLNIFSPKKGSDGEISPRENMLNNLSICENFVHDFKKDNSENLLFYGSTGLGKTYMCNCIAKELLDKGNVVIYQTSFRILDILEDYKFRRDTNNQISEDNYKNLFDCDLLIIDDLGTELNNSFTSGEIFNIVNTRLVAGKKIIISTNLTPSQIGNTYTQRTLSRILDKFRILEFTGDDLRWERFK

Work on “CD3657 helicase, bacterial two-hybrid fusion (enzyme)” yielded a fold β-galactosidase activity over the reporter strains with the individual plasmids [1] of 3 fold and a fold β-galactosidase activity over the reporter strains with the individual plasmids [2] of 5 fold.

Work on “C. difficile primase CD1454, purified without an affinity tag (enzyme)” yielded a helicase assay: displacement of a radiolabelled oligonucleotide annealed to ssM13 by CD3657 with equimolar CD1454 against CD3657 alone, time course to 35 min [3] of 3.5 fold and an RNA primer production by CD1454 on the 5′-d(CTA) 23-mer ssDNA template with against without CD3657, at [CD3657]6:[CD1454]3 [4] of 45.9 nmol.

“C. difficile replicative helicase CD3657, purified non-tagged (enzyme)” showed a stoichiometry N [5] of 6, a stoichiometry N [6] of 6 and a stoichiometry N (CD3657 per CD3654 (6:6)) [7] of 1. It also gave a stoichiometry N [8] of 6 and a stoichiometry N [9] of 6.

`Nc1ncnc2c1ncn2[C@@H]1O[C@H](COP(=O)(O)OP(=O)(O)OP(=O)(O)O)[C@@H](O)[C@H]1O` [ATP] was tested, and the “analytical gel filtration (Superdex 200) with SDS-PAGE” value [10] was “CD3657 helicase and the loader CD3654 can form a complex in an ATP-dependent manner”.
